In paper PMC7833764:

Columns and labels:
[1] = molecular target: human CD3 epsilon (CD3ε) (Homo sapiens) (UniProt P07766)
[2] = molecular target: human GUCY2C (guanylyl cyclase 2C), recombinant protein (human) (UniProt P25092)
Chain of UniProt P25092 (P25092 24-1073): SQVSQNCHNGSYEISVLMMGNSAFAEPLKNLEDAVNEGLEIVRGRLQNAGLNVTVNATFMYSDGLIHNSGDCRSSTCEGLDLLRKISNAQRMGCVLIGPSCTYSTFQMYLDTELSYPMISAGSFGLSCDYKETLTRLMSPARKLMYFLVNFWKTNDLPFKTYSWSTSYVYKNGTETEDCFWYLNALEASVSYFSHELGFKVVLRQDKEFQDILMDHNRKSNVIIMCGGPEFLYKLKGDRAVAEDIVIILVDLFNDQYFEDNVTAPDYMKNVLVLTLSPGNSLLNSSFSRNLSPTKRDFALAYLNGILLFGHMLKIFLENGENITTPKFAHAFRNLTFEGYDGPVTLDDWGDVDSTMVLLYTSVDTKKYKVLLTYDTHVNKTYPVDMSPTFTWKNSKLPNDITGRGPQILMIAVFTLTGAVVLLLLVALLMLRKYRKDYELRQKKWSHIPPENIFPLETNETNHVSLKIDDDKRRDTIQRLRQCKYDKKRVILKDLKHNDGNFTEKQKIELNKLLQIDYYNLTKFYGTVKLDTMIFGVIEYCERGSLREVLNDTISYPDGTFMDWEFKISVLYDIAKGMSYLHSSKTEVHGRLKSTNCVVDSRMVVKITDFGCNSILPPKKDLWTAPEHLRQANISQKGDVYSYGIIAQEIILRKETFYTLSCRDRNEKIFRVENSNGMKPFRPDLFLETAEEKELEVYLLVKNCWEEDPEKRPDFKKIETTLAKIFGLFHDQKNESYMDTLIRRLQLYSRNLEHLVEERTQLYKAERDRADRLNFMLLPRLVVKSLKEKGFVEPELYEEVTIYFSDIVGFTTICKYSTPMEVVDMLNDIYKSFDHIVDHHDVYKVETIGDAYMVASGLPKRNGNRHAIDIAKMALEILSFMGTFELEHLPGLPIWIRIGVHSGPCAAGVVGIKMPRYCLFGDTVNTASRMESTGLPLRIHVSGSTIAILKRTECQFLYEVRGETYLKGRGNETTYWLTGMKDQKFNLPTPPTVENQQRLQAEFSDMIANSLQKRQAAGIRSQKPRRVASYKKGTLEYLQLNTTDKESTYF

Chain of UniProt P07766 (P07766 23-207): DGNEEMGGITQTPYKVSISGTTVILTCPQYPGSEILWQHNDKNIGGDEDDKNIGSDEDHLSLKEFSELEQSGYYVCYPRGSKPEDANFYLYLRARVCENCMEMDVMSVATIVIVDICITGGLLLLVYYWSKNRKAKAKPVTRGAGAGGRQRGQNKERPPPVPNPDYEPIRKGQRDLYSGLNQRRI

PF-07062119, anti-GUCY2C x anti-CD3ε T cell bispecific antibody (diabody-Fc)
fold lower affinity than GUCY2C-0247 [1]: 7.2 fold | fold lower affinity than GUCY2C-0247 [2]: 2.5 fold
